Test results taken from publication PMC2606095 (Chemistry & biology, 2008).
Non-standard residues stand in square brackets, D forms with d. No end group written: not given here. pY = N[C@@H](Cc1ccc(OP(=O)(O)O)cc1)C(=O)O

T1: core domain of Signal Transducer and Activator of Transcription 1 (STAT1) (human)
T1 chain: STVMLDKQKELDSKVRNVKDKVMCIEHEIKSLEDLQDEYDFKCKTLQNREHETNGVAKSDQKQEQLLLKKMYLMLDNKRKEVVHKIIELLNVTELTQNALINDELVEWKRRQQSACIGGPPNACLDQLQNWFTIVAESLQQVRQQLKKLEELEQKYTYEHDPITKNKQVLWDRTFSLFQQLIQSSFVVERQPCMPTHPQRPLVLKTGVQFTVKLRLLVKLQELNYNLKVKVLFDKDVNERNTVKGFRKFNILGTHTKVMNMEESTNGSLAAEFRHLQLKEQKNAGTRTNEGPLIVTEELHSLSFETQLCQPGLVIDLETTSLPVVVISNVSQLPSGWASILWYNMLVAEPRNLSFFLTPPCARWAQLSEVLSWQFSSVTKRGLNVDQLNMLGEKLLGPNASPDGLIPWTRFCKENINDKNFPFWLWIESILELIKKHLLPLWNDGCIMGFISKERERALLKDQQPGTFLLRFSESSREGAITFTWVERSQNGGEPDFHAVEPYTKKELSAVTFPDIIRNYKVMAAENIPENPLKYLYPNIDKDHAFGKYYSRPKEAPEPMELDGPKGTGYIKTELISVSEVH

T2: PTB domain of Shc (human)
T2 sequence (P29353 whole entry, looked up): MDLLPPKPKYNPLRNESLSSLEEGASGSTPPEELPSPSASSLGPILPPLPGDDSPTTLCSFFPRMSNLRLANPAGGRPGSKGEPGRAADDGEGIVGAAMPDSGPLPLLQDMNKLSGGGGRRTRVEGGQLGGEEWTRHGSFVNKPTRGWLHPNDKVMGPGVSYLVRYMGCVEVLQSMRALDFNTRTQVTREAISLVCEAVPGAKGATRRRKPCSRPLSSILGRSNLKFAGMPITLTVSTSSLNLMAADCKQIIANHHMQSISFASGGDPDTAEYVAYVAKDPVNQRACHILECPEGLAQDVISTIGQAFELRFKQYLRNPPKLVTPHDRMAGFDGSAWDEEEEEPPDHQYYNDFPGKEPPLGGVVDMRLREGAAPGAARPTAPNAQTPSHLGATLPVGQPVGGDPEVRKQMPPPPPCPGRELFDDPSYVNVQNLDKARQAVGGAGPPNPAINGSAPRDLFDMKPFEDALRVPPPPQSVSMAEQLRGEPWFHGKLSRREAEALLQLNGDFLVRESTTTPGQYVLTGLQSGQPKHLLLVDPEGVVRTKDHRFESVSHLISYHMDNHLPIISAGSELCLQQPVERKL


Experiments:
[1] = molecular target: T1, core domain of Signal Transducer and …; assay: peptide or protein array
[2] = molecular target: T2, PTB domain of Shc (human); assay: peptide or protein array

Binder | Kd [1] | Kd [2]
{5(6)‑TAMRA}-VQEDSSTQR[pY]SADPTVFD [ErbB4-1128 phosphopeptide] | 2060 nM | 
{5(6)‑TAMRA}-QAFNIPPPI[pY]TSRARIDD [ErbB4-1035 phosphopeptide] | 1550 nM | 
{5(6)‑TAMRA}-AKKAFDNPD[pY]WNHSLPPD [ErbB4-1242 phosphopeptide] |  | < 1000 nM
{5(6)‑TAMRA}-DLQALDNPE[pY]HNASNGPD [ErbB4-1188 phosphopeptide] |  | < 1000 nM
